Assay [1] concerns the target T1, human CSF1R on CSF1R (SEQ ID NO: 2)-transfected CHO cells (human, UniProt P07333 20-972). The assay can be described thus: cell-based or functional assay.
Assay [2] concerns the target T1, human CSF1R on CSF1R (SEQ ID NO: …). Kind of assay: cell-based or functional assay. The source holds these as a separate data set.
Assay [3] has as its target T2, cynoCSF1R ECD-Fc (cynomolgus).
T2 construct: also called cynomolgus CSF1R ECD
Kind of assay: ELISA, plate coated with cynoCSF1R ECD-Fc. Here is the method:
(§1) Ninety-six well clear-bottom ELISA plates were coated overnight with 1 μg/ml recombinant hCSF1R ECD.506-Fc (SEQ ID NO: 6; FivePrime Therapeutics) or Human M-CSF R Fc Chimera (R&D Systems) in PBS. The next morning, wells were washed four times with 0.05% Tween20 in PBS (PBST) and blocked with Blocker-Blotto (Pierce). Fifty μl of 0.5× serial dilutions of the humanized antibody or parental chimeric antibody, beginning with 2000 ng/ml, diluted 1:1 in Blocker-Blotto were added to the CSF1R-coated wells. After incubation at room temperature (RT) for 90 min, wells were washed four times with PBST, and a 1:5000 dilution of a peroxidase-conjugated Goat anti-Human kappa Light chain antibody (Sigma) in Blocker-Blotto was added to each well. After incubation at RT for 60 min, wells were washed four times with PBST, and 50 μl o-phenylenediamine dihydrochloride peroxidase substrate (Sigma) was added to each well. After incubation at RT for 30 min, A450 values of each well were read directly on a SpectraMaxPlus spectrophotometer with SoftMaxPro software (Molecular Devices).
The binding curve for each humanized antibody binding to cynomolgus CSF1R ECD was determined as described above for human CSF1R, except the wells of the clear-bottom ELISA plates were coated overnight with 2 μg/ml recombinant cynoCSF1R ECD-Fc (FivePrime Therapeutics, SEQ ID NO: 8, but without the 19 amino acid leader sequence).

Assay [4] deals with T3, hCSF1R ECD.506-Fc (human).
T3 construct: also called human CSF1R ECD-Fc fusion protein; human CSF1R ECD
The assay can be described thus: ELISA, plate coated with human CSF1R ECD-Fc. Here is the method:
as §1
(In general: An ELISA detects its analyte on a solid surface through an enzyme-linked reagent.)

The target in assay [5] is T2, cynoCSF1R ECD-Fc. The assay can be described thus: competition ELISA, blocking of human CSF1 binding to cynoCSF1R ECD-Fc. The protocol: The humanized antibodies, along with the parental chimeric antibodies (cAbs), were tested for their ability to block human CSF1 binding to human and cynomolgus CSF1R ECD, as follows.
Recombinant Human CSF1 (M-CSF; R&D Systems) was biotinylated using an NH₂-Biotin Labeling Kit (Dojindo Molecular Technologies). One hundred μl of 1 μg/ml biotinylated CSF1 in PBST/0.1% BSA was added to the wells of Reacti-Bind Streptavidin coated plates (Pierce) pre-blocked with SuperBlock blocking buffer (Pierce) according to the manufacturer's instructions. Fifty μl of 0.5× serial dilutions of the humanized antibody or parental chimeric antibody, beginning with 2000 ng/ml, was incubated with 50 ng/ml hCSF1R ECD.506-Fc (SEQ ID NO: 6; FivePrime Therapeutics) or 50 ng/ml cynoCSF1R ECD-Fc (FivePrime Therapeutics, SEQ ID NO: 8, but without the 19 amino acid leader sequence) in 100 μl PBST/0.1% BSA for 90 min at RT, after which the admix was transferred to one or more wells of a ligand-coated plate. After 90 min at RT, wells were washed with PBST, and a 1:5000 dilution of an Fc-fragment-specific peroxidase-conjugated goat anti-human IgG (Jackson Immuno Research) in PBST/0.1% BSA was added to each well. After incubation at RT for 60 min, wells were washed with PBST/0.1% BSA, and o-phenylenediamine dihydrochloride peroxidase substrate (Sigma) was added to each well. After incubation at RT for 30 min, A450 values of each well were read directly on a SpectraMaxPlus spectrophotometer with SoftMaxPro software (Molecular Devices).

In assay [6] the target is T2, cynoCSF1R ECD-Fc. The assay can be described thus: competition ELISA, blocking of human IL34 binding to cynoCSF1R ECD-Fc.
In assay [7] the target is T4, mCSF1R ECD-Fc (mouse).
T4 construct: also called mouse CSF1R ECD
The assay can be described thus: ELISA, plate coated with mCSF1R ECD-Fc, detection anti-human kappa-HRP, A450. The protocol:
as §1
The binding curve for each humanized antibody binding to mouse CSF1R ECD was determined as described above for human CSF1R, except the wells of the clear-bottom ELISA plates were coated overnight with 2 μg/ml recombinant mCSF1R ECD-Fc (FivePrime Therapeutics, SEQ ID NO: 93).

The target of assay [8] is T5, hCSF1R ECD.506 (human, UniProt P07333 20-506).
T5 construct: also called human CSF1R ECD
Kind of assay: SPR Biacore T100, antibody captured on anti-human IgG, hCSF1R ECD.506 as analyte, 1:1 model. The protocol: The kₐ, kd, and KD for binding to human CSF1R ECD was determined for each of the humanized antibodies as follows.
Binding kinetics of anti-CSF1R humanized antibodies to CSF1R ECD was determined using Biacore T100 Surface Plasmon Resonance (SPR) (GE Healthcare Life Sciences, Piscataway, N.Y.). Each of the humanized anti-CSF1R antibodies was captured on a CM5 sensor chip immobilized with anti-Human IgG antibody using the Human antibody capture kit (GE Healthcare Life Sciences, Piscataway, N.Y.) at 150 RU so that the Rmax value for hCSF1R ECD.506 (SEQ ID NO: 5) binding was 100 RU. Rmax values of less than 150 RU are recommended for accurately determining kinetic values. […] The association constant, dissociation constant, affinity, and binding capacity of each of the Fabs for human CSF1R ECD was calculated using the Biacore T100 Evaluation software package using the 1:1 binding model.
In general terms: In SPR one partner is held on a chip, and binding of the other changes the refractive index at the surface.

B1: cAb 0302 (antibody, human IgG4 S228P, kappa)
heavy: not shown
light: DVVVTQTPASLAVSLGQRATISCRASESVDNYGLSFMNWFQQKPGQPPKLLIYTASNLESGIPARFSGGGSRTDFTLTIDPVEADDAATYFCQQSKELPWTFGGGTRLEIKRTVAAPSVFIFPPSDEQLKSGTASVVCLLNNFYPREAKVQWKVDNALQSGNSQESVTEQDSKDSTYSLSSTLTLSKADYEKHKVYACEVTHQGLSSPVTKSFNRGEC
As to B1, in assay [1], the “IC50, inhibition of CSF1-induced CSF1R phosphorylation (head prints 'Human CSF1/Human CSF1R ECD IC50')” value was determined as 0.264 µg/mL. Besides, the “IC50, inhibition of IL34-induced CSF1R phosphorylation (head prints 'Human IL34/Human CSF1R ECD IC50')” value in assay [1] came to 0.351 µg/mL. Also, the “IC50 (read off the curve), CSF1-induced CSF1R phosphorylation” value in assay [2] was about 0.3 µg/mL. The half-maximal effective concentration (EC50) (as a rule, the concentration giving half of the maximal effect) in assay [3] was 0.0173 µg/mL; in assay [4], 0.0159 µg/mL. Also, the IC50 (as a rule, the concentration that gives 50% inhibition) in assay [5] came out at 0.0331 µg/mL; in assay [6] it was 0.0494 µg/mL. The binding result in assay [7] is recorded as “no binding (tested: 2000 ng/ml)”.

B2: h0302-L1H1 (antibody, human IgG4 S228P, kappa, V domains shown)
VH: QVQLVQSGAEVKKPGSSVKVSCKASGYTFSDFNIHWVRQAPGQGLEWMGYINPYTDVTVYNEKFKGRVTITSDKSTSTAYMELSSLRSEDTAVYYCASYFDGTFDYALDYWGQGTLVTVSS
VL: EIVLTQSPATLSLSPGERATLSCRASESVDNYGLSFMNWYQQKPGQAPRLLIYTASNLESGIPARFSGSGSRTDFTLTISSLEPEDFAVYYCQQSKELPWTFGQGTKVEIKR
notes: also called Ab8; huAb 0302-L1H1
In the case of B2, in assay [1], the “IC50, inhibition of CSF1-induced CSF1R phosphorylation (head prints 'Human CSF1/Human CSF1R ECD IC50')” value came out at 0.742 µg/mL and the “IC50, inhibition of IL34-induced CSF1R phosphorylation (head prints 'Human IL34/Human CSF1R ECD IC50')” value is 0.364 µg/mL. The same molecule had a concentration giving a half-maximal response (EC50) in assay [3] of 1.06 µg/mL. The molecule further displayed a concentration for a half-maximal effect (EC50) in assay [4] of 0.0214 µg/mL. Also, the half-maximal inhibitory concentration (IC50) in assay [5] was found to be 0.0605 µg/mL. The IC50 in assay [6] came to 0.676 µg/mL. For the same molecule, in assay [7], the binding result was “no binding (tested: 2000 ng/ml)”. In assay [8], the dissociation constant Kd (in general, the constant that tells how readily two partners part at equilibrium) stood at 1170 pM; the off-rate (koff) – broadly, the first-order rate constant of dissociation – stood at 0.00404 s⁻¹; the kon (usually the second-order rate constant of association) is 3.47e+06 M⁻¹ s⁻¹.

B3: h0302-L1H2 (antibody, human IgG4 S228P, kappa, V domains shown)
VH: QVQLVQSGAEVKKPGSSVKVSCKASGYTFSDFNIHWVRQAPGQGLEWIGYINPYTDVTVYNEKFKGRATLTSDKSTSTAYMELSSLRSEDTAVYYCASYFDGTFDYALDYWGQGTLVTVSS
VL: EIVLTQSPATLSLSPGERATLSCRASESVDNYGLSFMNWYQQKPGQAPRLLIYTASNLESGIPARFSGSGSRTDFTLTISSLEPEDFAVYYCQQSKELPWTFGQGTKVEIKR
notes: also called Ab11; huAb 0302-L1H2
For B3, in assay [1], the “IC50, inhibition of CSF1-induced CSF1R phosphorylation (head prints 'Human CSF1/Human CSF1R ECD IC50')” value stood at 0.598 µg/mL and the “IC50, inhibition of IL34-induced CSF1R phosphorylation (head prints 'Human IL34/Human CSF1R ECD IC50')” value is 0.495 µg/mL. Besides, the “IC50 (read off the curve), CSF1-induced CSF1R phosphorylation” value in assay [2] is about 0.6 µg/mL. Moreover, the concentration giving a half-maximal response (EC50) in assay [3] is 0.172 µg/mL. In addition, the response in assay [4] was half-maximal at 0.0221 µg/mL (EC50). In assay [5], the IC50 worked out at 1.08 µg/mL. The IC50 in assay [6] was found to be 0.541 µg/mL. Moreover, in assay [7], the binding result is on record as “no binding (tested: 2000 ng/ml)”. For the same molecule, in assay [8], the dissociation constant (Kd) came out at 560 pM, the koff is 0.00153 s⁻¹ and the kon is 2.71e+06 M⁻¹ s⁻¹.

The values are drawn from US20220153851A1 (Five Prime, published 2022).
